Assay results: patent publication US6710030B1, “Contortrostain (CN) and methods for its use in preventing metastasis and other conditions” (University of Southern California, priority 1993, dated 2004)

How the values were obtained:
[1] = system: OVCAR-5 cells; test: Invasion of OVCAR-5 cells through Matrigel, modified Boyden chamber; assay type: cell-based, human; details: 1000 nM
Method: Modified Boyden chambers were employed to measure invasion. Filters of 12 mm Boyden chamber with 12 μm pore size (Corning Costar, Cambridge, Mass.) were coated with 1:50 dilution of Matrigel in serum free medium. Cells (2.5×10^5 cells in 200 μl of medium) pre-treated with contortrostatin, antibodies against different integrins, or vehicle (control), were applied to the upper wells. HT1080 conditioned medium was added to the bottom well. The cells were incubated at 37° C. for 8 hr., at which point cells on the top side of the membrane were removed with a wet cotton swab. Cells which invaded through the filter membrane were fixed and stained with Diff-Quik™ staining kit (Dade Diagnostics of P. R. Inc., Aguada, Puerto Rico). The membranes were removed from the holder, and were mounted on slides. Migration was quantitated by determining the number of cells in five randomly selected high power vision field using a microscope. Each inhibitor concentration was tested in duplicate, and the experiments were repeated three times to confirm results.

[2] = system: αvβ5 293 cells; test: Phosphotyrosine immunoblot, 293 cells expressing αvβ5; assay type: cell-based, human; details: 10 min
Method: Cell culture, preparation and stimulation—T24 cells were maintained in RPMI 1640 medium containing 5% fetal bovine serum, and MDA-MB-435 and 293 cells were maintained in Dulbecco's modified Eagle's medium with 10% serum at 37° C. in 5% CO2. Cells were washed with phosphate-buffered saline (PBS) and starved in the appropriate serum-free medium for 6 h at 37° C. Cells were detached by brief treatment with 0.05% trypsin/0.02% EDTA in PBS and collected by centrifugation, resuspended in soybean trypsin inhibitor (1 mg/ml in serum-free medium), and washed in 2% bovine serum albumin/serum-free medium. Cells were maintained in suspension for 1 h in 2% bovine serum albumin/serum-free medium at 37° C. with end-over-end agitation. Quiescent cells (3×10^6/ml) were treated with disintegrins or other reagents while in suspension, or were allowed to adhere to Matrigel (Becton Dickinson, Bedford, Mass.) diluted 1:100 with serum-free medium during treatment. […]
Contortrostatin- induced signaling events are mediated by the αvβ3 integrin—The integrinbinding specificities of echistatin and flavoridin have been determined previously (Niewiarowski et al., supra; and Pfaff, M., McLane, M. A., Beviglia, L., Niewiarowski, S., and Timpl, R. (1994) Cell Adhesion and Communication 2, 491-501). […]

B1: contortrostatin (protein)
chain: DAPANPCCDAATCKLTTGSQCADGLCCDQCKFMKEGTVCRRARGDDLDDYCNGISAGCPRNPFHA
[1]
  invasion of OVCAR-5 cells through Matrigel: almost completely inhibited invasion
[2]
  tyrosine phosphorylation: no response
